{"source": "patent US20080274950A1", "about": "(BABRAHAM INSTITUTE, published 2008)", "key": {"[1]": {"molecular_target": "T1, full length chicken N-cadherin with the mutation E89A expressed on K562 cells (chicken, UniProt P10288 165-912, E89A)", "T1 construct": "whole, on cells; also called cells expressing the E89A mutation; K562 E89A", "T1 sequence (looked up)": "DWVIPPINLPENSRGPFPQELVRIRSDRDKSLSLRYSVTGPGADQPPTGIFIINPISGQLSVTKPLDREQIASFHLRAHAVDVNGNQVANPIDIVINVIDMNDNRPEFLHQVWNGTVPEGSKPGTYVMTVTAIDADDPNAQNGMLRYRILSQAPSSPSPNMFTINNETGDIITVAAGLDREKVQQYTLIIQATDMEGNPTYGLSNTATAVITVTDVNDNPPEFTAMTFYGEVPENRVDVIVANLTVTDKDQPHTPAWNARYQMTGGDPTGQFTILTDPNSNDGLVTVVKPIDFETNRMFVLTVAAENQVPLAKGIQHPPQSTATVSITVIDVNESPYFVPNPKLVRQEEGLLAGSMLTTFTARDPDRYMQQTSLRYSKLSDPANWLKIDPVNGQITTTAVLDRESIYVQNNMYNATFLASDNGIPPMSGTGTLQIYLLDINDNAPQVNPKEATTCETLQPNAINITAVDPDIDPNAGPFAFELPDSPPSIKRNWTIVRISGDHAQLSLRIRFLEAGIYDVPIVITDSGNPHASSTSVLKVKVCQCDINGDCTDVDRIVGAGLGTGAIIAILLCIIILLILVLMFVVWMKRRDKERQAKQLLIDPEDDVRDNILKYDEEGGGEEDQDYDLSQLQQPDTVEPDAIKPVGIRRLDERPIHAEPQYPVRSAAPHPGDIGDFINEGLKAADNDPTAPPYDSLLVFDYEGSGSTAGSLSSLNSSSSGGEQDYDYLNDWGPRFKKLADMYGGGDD", "test": "adhesion of K562 transfectants to N-cadherin Fc coated at 1 µg/ml; reversed by chelation of calcium", "description": "(§1) Adhesion tests were conducted substantially as described in Example 1. Briefly, K562 Cells or L cells transfected with wild type or mutant N-cadherin were allowed to settle for 45 minutes at 37° C. onto N-cadherin Fc fusion proteins coated at 1 μg/ml to a 96 well plate. Non-adherent cells were then washed off and residual adherent cells were quantitated by measuring acid phosphatase activity. Assays were conducted in quadruplicate and results are expressed as % cells adhering +/−SEM."}, "[2]": {"molecular_target": "T2, full length chicken N-cadherin with the N-terminus extended by two glycine residues (GG) expressed on K562 … (chicken, UniProt P10288 165-912)", "T2 construct": "whole, on cells; also called cells expressing the GG N-terminal extension mutant; K562 GG", "T2 sequence": "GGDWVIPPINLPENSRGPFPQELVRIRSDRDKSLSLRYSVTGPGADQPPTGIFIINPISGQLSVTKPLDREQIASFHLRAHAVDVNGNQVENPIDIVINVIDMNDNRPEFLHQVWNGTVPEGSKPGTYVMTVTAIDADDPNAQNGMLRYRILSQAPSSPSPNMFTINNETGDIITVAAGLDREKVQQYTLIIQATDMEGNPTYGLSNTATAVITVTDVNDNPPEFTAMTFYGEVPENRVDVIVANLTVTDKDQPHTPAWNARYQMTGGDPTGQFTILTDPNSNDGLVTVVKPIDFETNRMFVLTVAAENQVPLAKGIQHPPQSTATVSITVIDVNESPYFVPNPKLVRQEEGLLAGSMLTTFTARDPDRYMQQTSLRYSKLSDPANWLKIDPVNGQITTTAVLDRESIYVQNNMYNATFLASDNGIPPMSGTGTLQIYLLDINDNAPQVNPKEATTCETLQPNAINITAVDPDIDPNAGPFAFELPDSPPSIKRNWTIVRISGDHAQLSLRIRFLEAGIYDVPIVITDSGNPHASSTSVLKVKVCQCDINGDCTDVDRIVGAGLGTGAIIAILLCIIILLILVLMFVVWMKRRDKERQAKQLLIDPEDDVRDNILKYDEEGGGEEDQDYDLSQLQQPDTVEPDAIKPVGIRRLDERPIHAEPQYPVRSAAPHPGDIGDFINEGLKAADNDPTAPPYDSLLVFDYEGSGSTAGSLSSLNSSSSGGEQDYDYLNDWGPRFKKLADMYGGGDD", "test": "adhesion of K562 transfectants to coated N-cadherin Fc", "description": "as §1"}, "[3]": {"molecular_target": "T3, human N-cadherin naturally expressed on DX3 melanoma cells (human, UniProt P19022 160-906)", "T3 construct": "also called DX3 Cells; N-cadherin+ve DX3 melanoma cells", "T3 sequence": "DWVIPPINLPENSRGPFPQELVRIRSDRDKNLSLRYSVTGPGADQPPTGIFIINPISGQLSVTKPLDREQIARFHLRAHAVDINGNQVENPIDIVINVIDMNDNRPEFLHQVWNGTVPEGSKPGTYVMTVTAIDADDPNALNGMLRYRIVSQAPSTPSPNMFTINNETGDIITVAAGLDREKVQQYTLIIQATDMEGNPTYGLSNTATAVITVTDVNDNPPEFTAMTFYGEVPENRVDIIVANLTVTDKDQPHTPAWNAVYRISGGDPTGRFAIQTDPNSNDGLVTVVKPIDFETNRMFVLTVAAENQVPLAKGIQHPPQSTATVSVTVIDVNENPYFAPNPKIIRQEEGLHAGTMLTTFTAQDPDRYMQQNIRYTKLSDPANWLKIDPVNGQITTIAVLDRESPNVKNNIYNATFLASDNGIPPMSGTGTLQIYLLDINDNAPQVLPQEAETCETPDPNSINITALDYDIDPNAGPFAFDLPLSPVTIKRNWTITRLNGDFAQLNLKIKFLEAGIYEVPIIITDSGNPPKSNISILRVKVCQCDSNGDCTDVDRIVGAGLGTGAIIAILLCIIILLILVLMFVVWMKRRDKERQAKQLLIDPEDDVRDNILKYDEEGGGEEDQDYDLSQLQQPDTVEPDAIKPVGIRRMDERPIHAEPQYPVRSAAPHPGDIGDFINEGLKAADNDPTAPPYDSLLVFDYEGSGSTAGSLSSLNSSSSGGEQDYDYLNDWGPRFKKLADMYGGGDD", "test": "adhesion of DX3 cells to coated monomeric N-cadherin-Fc, oxidising buffer", "description": "Monomeric or dimeric N-cadherin-Fc fusion protein in Cos cell supernatants was added as described for the ELISA assay. DX3 Cells, a human melanoma cell line which expresses N-cadherin, were dissociated with Cell Dissociation Solution (Sigma, code C5789), resuspended in HBSS with 2% FCS and assessed for adhesion to wild type or mutant N-cadherin-Fc as previously described (Corps et al., 2001). Microscopic examination established that the cells were present as a single cell suspension as they settled onto the plate. For assays conducted in reducing conditions, 10 mM DTT was present during the adhesion and washing steps. Determinations were conducted in triplicate and results are presented as mean +/−sem."}, "[4]": {"molecular_target": "the molecule itself", "test": "disulphide-bonded cis-dimers in the coating layer; non-reducing SDS-PAGE and immunoblot", "description": "Monomeric N-cadherin-Fc (1 μg/ml) bearing the three alternative cysteine point mutations, D1C, R25C or D27C, was immobilised on 96-well plates with goat antihuman IgG Fe as previously described for E-cadherin-Fc (Corps et al., 2001). Unbound cadherin was removed by washing with HBSS, 0.1% BSA, followed by HBSS alone. The plates were not blocked with additional protein. K562 transfectants expressing N-cadherin bearing complementary or non-complementary point mutations (6×10^4 Cells in 100 μl HBSS containing 10 mM DTT), in single cell suspension, were added to the coated wells which contained 100 μl HBSS. The final concentration of DTT was therefore 5 mM DTT during the adhesion stage. The cells were allowed to settle for 10 min at room temperature before incubation at 37° C. for 30 minutes to complete adhesion. […] Adherent cells from a pool of 4 wells for each experimental condition were then solubilised in sample buffer for SDS-PAGE and analysed on NuPAGE Novex gradient gels, 3-8% or 4-12%, (Invitrogen), under nonreducing or reducing conditions. Cellular cadherin was detected by immunoblotting using rabbit pan anti-cadherin antiserum specific for the cytoplasmic domain. Alternatively, N-cadherin-Fc fusion protein was detected with rabbit anti-human IgG, Fc-specific (Pierce, code 31142). […]"}, "[5]": {"molecular_target": "T2, full length chicken N-cadherin with the …", "test": "adhesion of K562 transfectants to N-cadherin Fc coated at 1 µg/ml", "description": "as §1"}, "[6]": {"molecular_target": "T1, full length chicken N-cadherin with the …", "test": "adhesion of K562 transfectants to coated N-cadherin Fc", "description": "as §1"}}, "data": [{"binder": "chicken N-cadherin Fc fusion protein with the N-terminus extended by two glycine residues (GG) (Fc fusion, extracellular domain; also called GG extension mutant; GG mutant; not shown: hinge region, CH2 and CH3 domains of human IgG1 heavy chain (vector pIgSig)) GGDWVIPPINLPENSRGPFPQELVRIRSDRDKSLSLRYSVTGPGADQPPTGIFIINPISGQLSVTKPLDREQIASFHLRAHAVDVNGNQVENPIDIVINVIDMNDNRPEFLHQVWNGTVPEGSKPGTYVMTVTAIDADDPNAQNGMLRYRILSQAPSSPSPNMFTINNETGDIITVAAGLDREKVQQYTLIIQATDMEGNPTYGLSNTATAVITVTDVNDNPPEFTAMTFYGEVPENRVDVIVANLTVTDKDQPHTPAWNARYQMTGGDPTGQFTILTDPNSNDGLVTVVKPIDFETNRMFVLTVAAENQVPLAKGIQHPPQSTATVSITVIDVNESPYFVPNPKLVRQEEGLLAGSMLTTFTARDPDRYMQQTSLRYSKLSDPANWLKIDPVNGQITTTAVLDRESIYVQNNMYNATFLASDNGIPPMSGTGTLQIYLLDINDNAPQVNPKEATTCETLQPNAINITAVDPDIDPNAGPFAFELPDSPPSIKRNWTIVRISGDHAQLSLRIRFLEAGIYDVPIVITDSGNPHASSTSVLKVKVCQCDINGDCTDVDRIVGAGLGTG", "values": [{"measurement": "binding result", "setting": "[1]", "value": "binds"}, {"measurement": "binding result", "setting": "[2]", "value": "no binding (tested: Fc fusion protein coated at 1 µg/ml)"}]}, {"binder": "monomeric chicken N-cadherin-Fc with the mutation D1C (Fc fusion, UniProt P10288 165-728, looked up, extracellular domain; not shown: hinge region, CH2 and CH3 domains of human IgG1 heavy chain (vector pIgSig)) CWVIPPINLPENSRGPFPQELVRIRSDRDKSLSLRYSVTGPGADQPPTGIFIINPISGQLSVTKPLDREQIASFHLRAHAVDVNGNQVENPIDIVINVIDMNDNRPEFLHQVWNGTVPEGSKPGTYVMTVTAIDADDPNAQNGMLRYRILSQAPSSPSPNMFTINNETGDIITVAAGLDREKVQQYTLIIQATDMEGNPTYGLSNTATAVITVTDVNDNPPEFTAMTFYGEVPENRVDVIVANLTVTDKDQPHTPAWNARYQMTGGDPTGQFTILTDPNSNDGLVTVVKPIDFETNRMFVLTVAAENQVPLAKGIQHPPQSTATVSITVIDVNESPYFVPNPKLVRQEEGLLAGSMLTTFTARDPDRYMQQTSLRYSKLSDPANWLKIDPVNGQITTTAVLDRESIYVQNNMYNATFLASDNGIPPMSGTGTLQIYLLDINDNAPQVNPKEATTCETLQPNAINITAVDPDIDPNAGPFAFELPDSPPSIKRNWTIVRISGDHAQLSLRIRFLEAGIYDVPIVITDSGNPHASSTSVLKVKVCQCDINGDCTDVDRIVGAGLGT", "values": [{"measurement": "binding result", "setting": "[3]", "value": "binds"}, {"measurement": "binding result", "setting": "[4]", "value": "binds"}]}, {"binder": "chicken N-cadherin Fc fusion protein with the mutation E89A (Fc fusion, UniProt P10288 165-728, looked up, extracellular domain; also called E89A mutant; E89A Fc fusion protein; not shown: hinge region, CH2 and CH3 domains of human IgG1 heavy chain (vector pIgSig)) DWVIPPINLPENSRGPFPQELVRIRSDRDKSLSLRYSVTGPGADQPPTGIFIINPISGQLSVTKPLDREQIASFHLRAHAVDVNGNQVANPIDIVINVIDMNDNRPEFLHQVWNGTVPEGSKPGTYVMTVTAIDADDPNAQNGMLRYRILSQAPSSPSPNMFTINNETGDIITVAAGLDREKVQQYTLIIQATDMEGNPTYGLSNTATAVITVTDVNDNPPEFTAMTFYGEVPENRVDVIVANLTVTDKDQPHTPAWNARYQMTGGDPTGQFTILTDPNSNDGLVTVVKPIDFETNRMFVLTVAAENQVPLAKGIQHPPQSTATVSITVIDVNESPYFVPNPKLVRQEEGLLAGSMLTTFTARDPDRYMQQTSLRYSKLSDPANWLKIDPVNGQITTTAVLDRESIYVQNNMYNATFLASDNGIPPMSGTGTLQIYLLDINDNAPQVNPKEATTCETLQPNAINITAVDPDIDPNAGPFAFELPDSPPSIKRNWTIVRISGDHAQLSLRIRFLEAGIYDVPIVITDSGNPHASSTSVLKVKVCQCDINGDCTDVDRIVGAGLGT", "values": [{"measurement": "binding result", "setting": "[5]", "value": "binds"}, {"measurement": "binding result", "setting": "[6]", "value": "no binding (tested: Fc fusion protein coated at 1 µg/ml)"}]}]}
